Reference: paper PMC4009068

Key:
[1] = target: Atg19 (wild type full-length protein) (yeast) (UniProt P35193); assay: ITC
Atg19 C-terminus (yeast) = Atg19 C-terminus (yeast) (UniProt P35193); assay: SEC

Atg8 (from UniProt P38182 1-117) (natural protein)
Kd [1]: 35 µM
stoichiometry N (Atg8 molecules per 1 Atg19 C-terminus) (Atg19 C-terminus (yeast)): 4.14
